Results published in patent US12359192B2, “Methods and compositions for display of macrocyclic peptides” (University of Rochester, priority 2013, dated 2025).
Numbered stars: 1 amine (or outer) side, 2 acyl side, 3 side chain; on linkers, the order of the positions; unused ones are H or OH. Bridge positions count the residues as written; N and C are the ends. Peptide text beside a SMILES is read from it. * marks the point of attachment. CH2CH2 = C(C[*:2])[*:1]; Propargyl = C#CC*

Tests used:
streptavidin [1] = target: T1, streptavidin (Streptomyces avidinii, UniProt P22629); assay: in-solution inhibition (competitive binding) assay for streptavidin binding affinity; settings: versus cyclo[S(OpgY)[…]]
T1 construct: purchased Sigma-Aldrich
T1 sequence (P22629 25-183, species assumed): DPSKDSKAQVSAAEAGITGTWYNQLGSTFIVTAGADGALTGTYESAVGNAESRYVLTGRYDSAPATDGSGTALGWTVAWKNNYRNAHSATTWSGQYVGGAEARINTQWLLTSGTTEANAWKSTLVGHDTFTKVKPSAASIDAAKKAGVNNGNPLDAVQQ
Experimental: Then, a fixed amount of streptavidin-horseradish peroxidase conjugate is added to the plate in the presence of varying amount of the bicyclic or cyclic peptide.

Keap1 Kelch domain (KKD) = target: T2, Keap1 Kelch domain (KKD) (Homo sapiens, UniProt Q14145); assay: direct binding assay with plate-immobilized Keap1 Kelch domain (KKD) and HRP-conjugated anti-FLAG antibody; settings: linear version, O2beY substituted with OpgY
T2 construct: poly-His tag with TEV protease cleavable linker (N)
T2 sequence (Q14145 321-609 limits assumed): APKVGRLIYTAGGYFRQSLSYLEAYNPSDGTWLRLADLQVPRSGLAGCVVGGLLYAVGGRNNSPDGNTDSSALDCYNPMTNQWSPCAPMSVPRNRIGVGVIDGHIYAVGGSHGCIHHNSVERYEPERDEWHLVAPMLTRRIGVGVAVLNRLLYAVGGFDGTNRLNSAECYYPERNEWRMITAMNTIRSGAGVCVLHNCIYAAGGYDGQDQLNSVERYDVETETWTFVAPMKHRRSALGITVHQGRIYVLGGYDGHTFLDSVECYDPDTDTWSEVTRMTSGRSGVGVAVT
Source text: FIG. 46A-FIG. 46C depict the selection of macrocyclic peptide inhibitors of the Keap1/Nrf2 interaction using methods disclosed herein. […] KD values correspond to the FLAG-tagged CBD-fused peptide macrocycles. FIG. 46B depicts binding curves for selected macrocyclic peptides as determined using a direct binding assay with plate-immobilized KKD and HRP-conjugated anti-FLAG antibody for detection of the bound peptide.
FIG. 47A-FIG. 47B depicts the selection of Keap1 binding macrocyclic peptides from a naïve macrocyclic peptide phage display library. […] FIG. 47B depicts the binding curves binding curves for selected macrocyclic peptides as determined using a direct binding assay with plate-immobilized KKD and HRP-conjugated anti-FLAG antibody for detection of the bound peptide.
The macrocyclic peptide phage display system of FIG. 43 was further applied to discover macrocyclic peptides capable of targeting a biomedically relevant protein-protein interaction such as the interaction between the Kelch-like ECH-associated protein 1 (Keap1) and transcriptional regulator Nrf2. […] The purified FLAG-tagged cyclic peptides were then tested for their ability to bind the Keap1 Kelch domain (KKD) using an in vitro assay, in which peptide binding to plate-immobilized KKD is detected using a HRP-conjugated anti-FLAG antibody (FIG. 46B). […]

Keap1 Kelch Domain (KDD) = target: T3, Keap1 Kelch Domain (KDD) (Homo sapiens, UniProt Q14145); assay: KD (nM)
T3 construct: poly-His tag with TEV protease cleavable linker (N)
Source text: Table printed on a drawing sheet, FIG. 47A
Head of the field: KD (nM)
The patent's description of the figure: FIG. 47A-FIG. 47B depicts the selection of Keap1 binding macrocyclic peptides from a naïve macrocyclic peptide phage display library. FIG. 47A depicts the naïve library of i/i+6-linked macrocyclic peptides (X=NNK; Y*=O2beY) and the sequences and binding affinity for selected macrocyclic Keap1-binding peptides isolated after panning the macrocyclic peptide display library against immobilized Keap1 Kelch Domain (KDD). FIG. 47B depicts the binding curves binding curves for selected macrocyclic peptides as determined using a direct binding assay with plate-immobilized KKD and HRP-conjugated anti-FLAG antibody for detection of the bound peptide.
First copying reader's note: Residue columns have no printed head; a drawn thioether linker joins Y* (first residue) and C (last residue), and the KD cells hold value ± error for binding to the Keap1 Kelch Domain (KKD).
Where the first naming reader finds the target: description_of_the_figure: isolated after panning the macrocyclic peptide display library against immobilized Keap1 Kelch Domain (KDD)

streptavidin [2] = target: T1, streptavidin; assay: direct binding assay with plate-immobilized streptavidin and HRP-conjugated anti-FLAG antibody; settings: CBD alone (tag control)
Source text: FIG. 45A-FIG. 45C depict the affinity selection of streptavidin binding peptide macrocycles using methods disclosed herein. […] KD values correspond to the corresponding FLAG-macrocycle-CBD constructs in purified form. FIG. 45B depicts binding curves for selected peptide macrocycle hits as determined using a direct binding assay with plate-immobilized streptavidin and HRP-conjugated anti-FLAG antibody for detection of the bound peptide. […] FIG. 45D depicts phage enrichment over the four rounds of affinity selection and amplification as determined via the phage titer assay.
Studies were performed to assess the functionality of the phage display-based strategy for functional selection of thioether-linked macrocyclic peptides (FIG. 43) that can bind to a target protein. […] To this end, three peptide sequences from the ‘-GD’ family and two from the ‘-FD’ family, respectively, were subcloned into a pET22 vector for expression of the corresponding macrocyclic peptides fused to a N-terminal FLAG tag and a C-terminal chitin binding domain (CBD) and poly-histidine tag to facilitate purification and quantification. […]
Binding Assays. […] Equilibrium dissociation constants (KD) were determined by fitting the dose-response curves to a 1:1 binding isotherm equation via nonlinear regression using SigmaPlot. Mean values and standard deviations were calculated from experiments performed in triplicate.

Molecule: CC(C)[C@@H]1NC(=O)[C@H](CC(N)=O)NC(=O)[C@H]([C@@H](C)O)NC(=O)[C@@H]2Cc3ccc(cc3)OCCSC[C@H](NC(=O)[C@H](Cc3ccccc3)NC(=O)[C@H](CCC(N)=O)NC(=O)[C@@H]3CCCN3C(=O)[C@H](Cc3c[nH]cn3)NC1=O)C(=O)N[C@@H](CC(N)=O)C(=O)N[C@@H](C)C(=O)N[C@@H](CS)C(=O)N2 [cStrep3(C)—Z8C(p-2beF)] (cyclo(ACYTNVHPQFCN); linker 3-11 via CH2CH2)
- increase in streptavidin binding affinity as compared to the monocyclic counterpart (streptavidin [1]): > 2 fold

Molecule: C#CCOc1ccc(C[C@H](N)C(=O)N[C@@H](CC(=O)O)C(=O)N[C@@H](CO)C(=O)N[C@@H](CCC(=O)O)C(=O)N[C@H](C(=O)NCC(=O)N[C@@H](CCC(=O)O)C(=O)N[C@@H](CS)C(=O)O)[C@@H](C)O)cc1 [linear version of KKD-m1] (H-Y(Propargyl)DSETGEC-OH; N-terminus and C-terminus assumed)
- lower affinity for Keap1 relative to KKD-m1 (Keap1 Kelch domain (KKD)): five-fold lower affinity

Molecule: Y* D A E T G E C (YDAETGEC; not fully specified; modified tyrosine Y*; KKD(6X)-m2) [SEQ ID NO: 251 | KKD(6X)-m2]
- Kd (Keap1 Kelch Domain (KDD)): 40 ± 13 nM

Molecule: Y* D I E T G E C (YDIETGEC; not fully specified; modified tyrosine Y*; KKD(6X)-m1) [SEQ ID NO: 250 | KKD(6X)-m1]
- Kd (Keap1 Kelch Domain (KDD)): 43 ± 14 nM

B1: CBD: chitin binding domain tag alone (protein)
chain: MKIEEGKLTNPGVSAWQVNTAYTAGQLVTYNGKTYKCLQPHTSLAGWEPSNVPALWQLQNNGNNGLELRHG
- binding to streptavidin (streptavidin [2]): no detectable binding
